Common to all, as to experiment: co-sedimentation
Assay [1] deals with paclitaxel-stabilized microtubules (bovine brain tubulin) (bovine) (UniProt Q6B856).
Assay [2] has the same target. This is another data set of the same source.
The target is the same in assay [3]. This is another data set of the same source.
The target is the same in assay [4]. This is another data set of the same source.
Assay [5] shares this target. The source holds these as a separate data set.

Here are results for four substances from publication doi:10.1101/525329.

Read-outs that look alike come from different tables or passages of the source.

Chain of paclitaxel-stabilized microtubules (bovine brain tubulin) (bovine) (Q6B856 whole entry, looked up): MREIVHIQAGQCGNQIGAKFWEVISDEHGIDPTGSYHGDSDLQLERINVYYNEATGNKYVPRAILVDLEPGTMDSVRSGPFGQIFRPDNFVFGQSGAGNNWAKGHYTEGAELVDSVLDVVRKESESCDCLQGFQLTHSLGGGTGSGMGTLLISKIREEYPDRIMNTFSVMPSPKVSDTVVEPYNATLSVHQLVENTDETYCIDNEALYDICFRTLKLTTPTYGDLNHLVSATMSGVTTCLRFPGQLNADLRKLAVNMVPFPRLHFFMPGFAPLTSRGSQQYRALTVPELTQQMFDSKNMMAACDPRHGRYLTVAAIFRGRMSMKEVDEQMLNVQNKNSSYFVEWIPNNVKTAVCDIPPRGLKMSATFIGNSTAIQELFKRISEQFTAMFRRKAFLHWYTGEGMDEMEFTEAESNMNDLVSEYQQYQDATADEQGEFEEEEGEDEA

With “Cin8-EL8 (tagless): monomeric Cin8 motor with the loop-8 insert of Eg5 (domain or fragment)”, in assay [1], the Kd – broadly, the equilibrium constant for the complex coming apart – stood at 3000 nM. Moreover, the Kd in assay [2] turned out to be 2900 nM. In assay [3], the Kd was found to be 100 nM; the stoichiometry N (as a rule, a count of units in the complex or per binding partner) came to 1.4; the stoichiometry N (motor bound per tubulin dimer) was found to be 1.
“Eg5-CL8-MBP (MBP-His6-TEV-Eg5-CL8) (from UniProt P27895 261-359) (domain or fragment)” yielded a Kd in assay [4] of 100 nM. Further, in assay [3], the Kd is 100 nM and the stoichiometry N (motor per tubulin dimer) worked out at 1.
For the substance “Eg5-KL8: monomeric Eg5 motor domain with the loop-8 insert of Kip1 (domain or fragment)”, the Kd was 100 nM in assay [3] and 440 nM in assay [5]. In assay [3], this substance registered a stoichiometry N of 1.3.
“wild type monomeric Cin8 motor domain with thioredoxin tag (Cin8-trx) (domain or fragment)”: in assay [3], the Kd was found to be 7 nM and the stoichiometry N is 2.2.
